Reference: publication doi:10.1101/2021.11.20.466133 (bioRxiv, 2021)

Biological target: the molecule itself
Assay: SEC-MALS

B1: Mycobacterium smegmatis c-di-AMP hydrolase (phosphodiesterase) MsPDE (enzyme)
chain: MPVTTTDPKTGLLTGPDAQIAGARVDARGAADLLTAASSVSVICHVYPDADTIGAGLALAQVLAASGKHVEVSFATPAQLPESLQSLPGGHLLVAPEAMRRDADLVVTVDIPSINRLGALSGLAGPGREVLVIDHHASNQLFGTANYIDPSADSTTMLVAELLDAWGKPIDEKVAHCLYAGLTTDTGSFRWATARAHRLAARLVELGVDNASISRTLLDTHPFAWLPMLSRVLATARLLPDALDGRGFVYAVVPHDEWSEARPEEVESIVDIVRTTQQAEVAAVFKEIEPMHWSVSMRAKSVNLASVASAFGGGGHPHAAGYSATGSADDVVQALARALG
stoichiometry N: 2
